Measurements published in the supplement of paper PMC9170038.

Tested on: MS2 coat protein
Experiment: apparent KD of MS2 coat protein; designed switch direction (-1 OFF switch, 1 ON switch): 1; higher = weaker reporter binding
In short: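 For each design, the apparent KD is the median over clusters of curves fitted to normalised cluster fluorescence. Clusters held RNA switches with common flanks, transcribed on Illumina chips by stalled E. coli RNA polymerase. These were titrated with SNAP-549-labelled MS2 coat protein, doubling from 0.7 or 1.5 nM to 3 µM, without input, with 200 uM small-molecule ligand, or with an oligonucleotide input.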

[1] = input ligand: microRNA oligo, concentration not stated
[2] = Eterna round: R95, input ligand: FMN 200 uM
[3] = Eterna round: R95, input ligand: microRNA oligo, concentration not stated
[4] = Eterna round: R95, input ligand: none

Sequence | apparent KD of MS2 coat protein (input ligand: FMN 200 uM) | apparent KD of MS2 coat protein [1] | apparent KD of MS2 coat protein (input ligand: none) | apparent KD of MS2 coat protein [2] | apparent KD of MS2 coat protein [3] | apparent KD of MS2 coat protein [4]
GUAGCAUACCGAGGAUAUUCUACAUGAGGAUCACCCAUGUUUAAUAGGCCACAUUAGUGGCCUUGGGAGAAGGCGGAAUGCUAC [Xeonanis - 20 Mod47] (Eterna round: R96, puzzle: Same State NG 2) | 13.6 nM | 12.7 nM | 19.8 nM | – | – | –
GUAUAACAUGAGGAUCACCCAUGUCAACAAAGUCGAGGAUAUGGGCAUAGAUUAUAAGAACCAGAAGGCGAAUAUG [Mat - Same State 1 - Mod of UCT - D42] (puzzle: Same State 1) | – | – | – | 119 nM | 219 nM | 666 nM
GUCAGCGAUUGAGGAUAUCACGUCGUUUAGACGUGAGAAGGCGAUCAUAACAUGAGGAUCACCCAUGUAUUACAUGAAGCUGAC [SSNG1/5-A3] (Eterna round: R96, puzzle: Same State NG 1) | 17.2 nM | 20.1 nM | 32.6 nM | – | – | –
GUCCAAAACACAGGAUAUCCCAGUCAUGAUCUGGGAGAAGGGUGGCCACAUGAGGAUCACCCAUGUGAAGUGCGAGAGGCACGA [Inerraat] (Eterna round: R96, puzzle: Same State NG 1) | 258 nM | 827 nM | 629 nM | – | – | –
GUGAGAUGUUCAGGAUAUUUCAGGAUAGUUAAUCCAAGGCCAUCACAUGAGGAUCACCCAUGUCGAGAGAAGGGAAUUCUCAGG [Eternabot solution 43] (Eterna round: R96, puzzle: Same State NG 2) | 378 nM | 331 nM | 433 nM | – | – | –
GUGCUCGUGUGAGGAUAUGCUUCCGUUUCGGCUGCAGAAGGUACUAUUAUACAUGAGGAUCACCCAUGUCUCUUUUGUUCGGUG [salish99_SSNG1_r04_911] (Eterna round: R96, puzzle: Same State NG 1) | 66.9 nM | 38.2 nM | 58.8 nM | – | – | –
GUGGCCUAGGCACAGGAUAUGUUUCUCGUAACAUGAGGAUCACCCAUGUGCCUUUGAGAUUUUAUGCAGAAGGGUGCACGCCACG [JL Atiinbe mod 04] (Eterna round: R96, puzzle: Same State 2) | 21.1 nM | 214 nM | 425 nM | – | – | –
GUGGCCUAGGCACAGGAUAUGUUUCUCGUAACAUGAGGAUCACCCAUGUGCCUUUGAGAUUUUAUGCAGAAGGGUGCACGCCACG [JL Atiinbe mod 04] (puzzle: Same State 2) | – | – | – | 20.6 nM | 273 nM | 491 nM
GUGGUCAGACAUGAGGAUCACCCAUGUGGAAUAAAUAACAGACAGGAUAUUUAAUAUAGGAUAUAGAAGAAGGGUCGAUUGGUG (Eterna round: R96, puzzle: Same State NG 3) | 117 nM | 87.5 nM | 103 nM | – | – | –
GUGGUCAGACAUGAGGAUCACCCAUGUGGAAUAAAUAACGGACAGGAUAUGCAAUAUAGGAUAUAGUAGAAGGGUUGAUUGGUG (Eterna round: R96, puzzle: Same State NG 3) | – | 49.3 nM | – | – | – | –
GUGGUCAGACAUGAGGAUCACCCAUGUGGAAUAAAUAACGGUGAGGAUAUGCAAUAUAGGAUAUAGUAGAAGGCAUGAUUGGUG (Eterna round: R96, puzzle: Same State NG 3) | 164 nM | 104 nM | 132 nM | – | – | –
GUGGUCAGACAUGAGGAUCACCCAUGUGGAAUAAAUAAGGAACAGGAUAUCUAAUAUAGGAUAUAAGAGAAGGGUUGGUUGGUG (Eterna round: R96, puzzle: Same State NG 3) | – | 61.9 nM | – | – | – | –
GUGGUCAGACAUGAGGAUCACCCAUGUGGAAUAAAUAAGGUUUAGGAUAUGGAAUAUAGGAUAUACCAGAAGGGAGGGUUGGUG (Eterna round: R96, puzzle: Same State NG 3) | – | 90.4 nM | – | – | – | –
GUGGUGAAUUAAGGAUAUCGAGUCAAGAUGUUAAACAUGAGGAUCACCCAUGUGGGUUGCGGUAUCGAGAAGGUAAUUUACGGG [salish99_SSNG2_r04_506] (Eterna round: R96, puzzle: Same State NG 2) | 17.3 nM | 20.1 nM | 30.3 nM | – | – | –
GUGUGUUGCGGGCAGGAUAUGUACUUGAGUACAUGAGGAUCACCCAUGUGCGGGUGUUUCACCCGACAGAAGGGCCUAUCGCGAC [JL-ss2-3.25 ViennaUCT mod] (Eterna round: R96, puzzle: Same State 2) | 252 nM | 457 nM | 1070 nM | – | – | –
GUGUGUUGCGGGCAGGAUAUGUACUUGAGUACAUGAGGAUCACCCAUGUGCGGGUGUUUCACCCGACAGAAGGGCCUAUCGCGAC [JL-ss2-3.25 ViennaUCT mod] (puzzle: Same State 2) | – | – | – | 145 nM | 136 nM | 664 nM

Sequence | apparent KD of MS2 coat protein (input ligand: FMN 200 uM) | apparent KD of MS2 coat protein [1] | apparent KD of MS2 coat protein (input ligand: none) | apparent KD of MS2 coat protein [2] | apparent KD of MS2 coat protein [3] | apparent KD of MS2 coat protein [4]
GUGUUACAUGAGGAUCACCCAUGUUGUUGUAGAUAAGGAUAUAUGGGAACGAGAGAAAUAAUAGAAGGUAUUAGGC [JR_SS1_Sub060] (puzzle: Same State 1) | – | – | – | – | 77.4 nM | –
GUUACAUGAGGAUCACCCAUGUAUGUGUGGGAGUAAGUGUCUUAGGAUAUCUAGUAUUUAAUUGAAGAGAAGGAAGAUUGUUGU [JMF's solution 67] (Eterna round: R96, puzzle: Same State NG 3) | 109 nM | 87.2 nM | 108 nM | – | – | –
GUUACAUGAGGAUCACCCAUGUAUGUGUGGGAGUAAGUGUCUUAGGAUAUCUAGUGUUUAAUUUAAGAGAAGGAAGAUUGUUGU [JMF's solution 53] (Eterna round: R96, puzzle: Same State NG 3) | 134 nM | 96.8 nM | 116 nM | – | – | –
GUUACAUGAGGAUCACCCAUGUAUGUGUGGGAGUAAGUGUCUUAGGAUAUCUAUUAUUUUAAUUAAGAGAAGGAAGAUUGUUGU [JMF's solution 20] (Eterna round: R96, puzzle: Same State NG 3) | 98.6 nM | 113 nM | 122 nM | – | – | –
GUUACAUGAGGAUCACCCAUGUAUGUGUGGGAGUAAGUGUCUUAGGAUAUCUGAUAUUUAAUUUAAGAGAAGGAAGAUUGUUGU [JMF's solution 29] (Eterna round: R96, puzzle: Same State NG 3) | 119 nM | 69.6 nM | 85.5 nM | – | – | –
GUUACAUGAGGAUCACCCAUGUAUGUGUGGGAGUAAGUGUCUUAGGAUAUCUGUGAUUUAAUUUAAGAGAAGGAAGAUUGUUGU [JMF's solution 32] (Eterna round: R96, puzzle: Same State NG 3) | 126 nM | 71.6 nM | 96.1 nM | – | – | –
GUUACAUGAGGAUCACCCAUGUGUGUGUGGGAGUGAGUGGCUUAGGAUAUCUAUGAUUUUAGUUGAGAGAAGGAGGAUUGCUGU [SS-NG3-LRO08] (Eterna round: R96, puzzle: Same State NG 3) | 439 nM | 158 nM | 347 nM | – | – | –
GUUAGGAAUCUAGCAAACAUGAGGAUCACCCAUGUAAGUGGGAAGGAUAUGGUACAGAAACUGUACCAGAAGGUCUUAUUAAUU [Omei SS(NG) 3 AV1] (Eterna round: R96, puzzle: Same State NG 3) | 128 nM | 246 nM | 306 nM | – | – | –
UAAAAUAACACAGGAUAUGCAGACAACUCGUCGGCAGAAGGGUGAGACAUGAGGAUCACCCAUGUAAAAUAAGGGCGCCGCCCG [Diatera] (Eterna round: R96, puzzle: Same State NG 1) | 995 nM | 219 nM | 777 nM | – | – | –
UAAAUACAUGAGGAUCACCCAUGUCAAAAGACAUGAGGAUAUGUACAGACUUCGGUCUGUACAGAAGGCAUGAAUA [salish99_ss1_r3_096] (Eterna round: R96, puzzle: Same State 1) | – | 417 nM | – | – | – | –
UAAAUACAUGAGGAUCACCCAUGUCAAAAGACAUGAGGAUAUGUACAGACUUCGGUCUGUACAGAAGGCAUGAAUA [salish99_ss1_r3_096] (puzzle: Same State 1) | – | – | – | 34.4 nM | 294 nM | 566 nM
UAAGGACAUGAGGAUCACCCAUGUGCUUCAUAUGGAGAAUCUCAGGAUAUCCUGAGGAUCACCCAGGAGAAGGGAGAUCCGAGG (Eterna round: R96, puzzle: Same State NG 3) | 288 nM | 191 nM | 225 nM | – | – | –
UAAGGACAUGAGGAUCACCCAUGUGCUUCAUAUGGAGAAUCUCAGGAUAUGCUGAGGAUCACCCAGCAGAAGGGAGAUCCGAGG (Eterna round: R96, puzzle: Same State NG 3) | 71.9 nM | 93 nM | 120 nM | – | – | –
UAAUUAAAGCAAGGAUAUCACGUCGAUUAGACGUGAGAAGGUGCUCCUUACAUGAGGAUCACCCAUGUAUAACAUGAAUAAUUA [SSNG1/10-B2] (Eterna round: R96, puzzle: Same State NG 1) | 169 nM | 522 nM | 792 nM | – | – | –
UACUUCAUGUAAGGAUAUGCAGCCGUUUCGGCUGCAGAAGGUACUAUAAUACAUGAGGAUCACCCAUGUCUCUCGCAUUGCGAG [JL SSNG1 1.50] (Eterna round: R96, puzzle: Same State NG 1) | 53.6 nM | 86.2 nM | 158 nM | – | – | –
UAGAAACAUGAGGAUCACCCAUGUGUCAAAGACAUAGGAUAUCAUAACUGGCGCCAGUUAUGAGAAGGGUGGUAAA [Belezaqu] (puzzle: Same State 1) | – | – | – | 33.8 nM | 52.6 nM | 170 nM
